Assay results from PMC12612255.

Target: CNOT1 (UniProt A5YKK6)
Assay: co-IP with FLAG-tagged YTHDF2
Conditions: reference: wild type; sites S39

binding against the reference: weaker
Substance: YTHDF2 (from UniProt Q9Y5A9) S39A
